Results from patent US5091518.

Target: T1, Retinoic acid receptor alpha (RAR-alpha) (UniProt P10276)
T1 sequence: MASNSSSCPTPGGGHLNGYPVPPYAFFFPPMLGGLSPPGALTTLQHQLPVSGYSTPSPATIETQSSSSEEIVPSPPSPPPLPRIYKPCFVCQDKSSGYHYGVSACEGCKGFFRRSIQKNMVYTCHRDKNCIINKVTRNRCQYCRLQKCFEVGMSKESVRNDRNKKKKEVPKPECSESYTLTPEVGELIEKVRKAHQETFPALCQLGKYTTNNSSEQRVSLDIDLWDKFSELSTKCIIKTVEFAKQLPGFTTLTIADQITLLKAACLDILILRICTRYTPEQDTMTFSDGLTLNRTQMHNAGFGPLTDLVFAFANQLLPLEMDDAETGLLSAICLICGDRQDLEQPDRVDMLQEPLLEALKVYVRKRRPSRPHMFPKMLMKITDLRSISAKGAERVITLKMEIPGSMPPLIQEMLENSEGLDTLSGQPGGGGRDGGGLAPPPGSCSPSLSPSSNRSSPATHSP
Assay: cell_activity

| Substance | activity (fold induction) (CV-1 cells, 10^-6 M retinoic acid, reverse orientation 9-fold) | activity (fold induction) (same as empty DMTV-LUC (2-fold)) |
| --- | --- | --- |
| 183 bp SmaI fragment of RARb promoter | 10 | – |
| NR oligo (45 bp located 24 bp 3' of bRE1) | – | 2 |
